# Assay results from patent publication US20190248901A1 (NOVELOGICS BIOTECHNOLOGY, published 2019).
# T1: recombinant extracellular alpha-3 domain of MICA (allele 001), His-tagged, Baculovirus/Sf9 expressed (human, UniProt Q29983 205-297)
# T1 construct: also called MICA alpha-3 recombinant antigen; alpha-3 domain MICA immunogen
# T1 sequence: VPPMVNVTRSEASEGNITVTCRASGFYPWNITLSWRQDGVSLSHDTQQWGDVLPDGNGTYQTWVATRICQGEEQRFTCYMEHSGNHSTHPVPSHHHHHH
# Columns and labels:
# [1] = target: recombinant extracellular alpha-3 domain of MICA (allele 001), His-tagged, Baculovirus/Sf9 expressed (human) (UniProt Q29983); test: Bio-Layer Interferometry (Octet RED96), antibody captured by anti-mouse IgG, antigen in solution, pH 7.4, 1:1 model
# [2] = target: soluble MICB (sMICB) shed from prostate cancer DU-145 cells (human) (UniProt Q29980); test: subtractive immunoprecipitation from DU-145 conditioned medium with antibody on Protein G beads, remaining sMICB by MICB ELISA, against isotype controls
# Chain of soluble MICB (sMICB) shed from prostate cancer DU-145 cells (human) (Q29980 23-309): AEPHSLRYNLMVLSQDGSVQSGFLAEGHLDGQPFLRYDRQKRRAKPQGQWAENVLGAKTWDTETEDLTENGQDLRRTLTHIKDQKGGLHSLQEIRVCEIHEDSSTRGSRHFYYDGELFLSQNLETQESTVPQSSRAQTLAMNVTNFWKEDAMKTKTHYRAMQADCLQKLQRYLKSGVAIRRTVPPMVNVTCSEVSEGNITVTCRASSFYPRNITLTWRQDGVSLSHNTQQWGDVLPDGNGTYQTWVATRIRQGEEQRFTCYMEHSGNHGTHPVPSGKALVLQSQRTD
# [3] = target: T1, recombinant extracellular alpha-3 …; test: Bio-Layer Interferometry (Octet RED96), antibody captured by anti-mouse IgG, antigen in solution, pH 7.4, 1:1 model
# Description: Biomolecular interactions between MICA alpha-3 recombinant antigen and test antibody were directly measured by Bio-Layer Interferometry (BLI) using a Pall ForteBio Octet RED96 machine (Pall ForteBio, CA, USA). Real-time kinetic analyses were performed on the test MICA monoclonal antibody 5C9, as well as two control antibodies, one of which could bind the alpha-3 MICA subdomain antigen (positive control) and one of which could not (negative control), as previously determined by ELISA. The Octet RED96 apparatus operates under the principle of Bio-Layer Interferometry, a label-free technique that measures molecular interactions and complex formation. A key component of the technique is the optical biosensor whose tip is immersed in the fluids of the test well and then used to assay interference patterns between waves of light. Here, the ligand (monoclonal antibody) is localized to the surface of the biosensor through capture by previously bound anti-mouse IgG, while the analyte biomolecule (antigen) is kept in solution. Binding responses between ligand and analyte were measured and reported in real-time. Both association and dissociation kinetics were monitored and KD values were calculated. This model assumed a 1:1 interaction of ligand to analyte.
Kd [1],reduction of the amount of sMICB in the sample [2],Kd [3],Molecule
9600 nM,,,negative control antibody of the Bio-Layer Interferometry analysis
6 nM,83%,,"BAMO3, MIC alpha-3 specific murine IgG2a monoclonal antibody (MBL International)"
,,~3.3 nM,"monoclonal antibody 5C9 (antibody, V domains shown, Mouse hybridoma antibody; Used as hybridoma supernatant in the screening and immunoprecipitation assays; also called mAb 5C9; antibody from hybridoma clone 5C9) VH: QVQLQQSGAELVRPGTSVKVSCKASGYAFTNYLIEWVKQRPGQGLEWIGLIYPGSGGTNYNEKFKGKATLTADKSSSTAYMQLSSLTSDDSAVYFCARIYYGNRDYGMDYWGQGTSVTVSS VL: MTQTPLSLPVSLGDQASISCRSSQSIVHSNGNTYLEWYLQKPGQSPKLLIYKVSNRFSGVPDRFSGSGSGTDFTLKISRVEAEDLGVYYCFQGSHVPFTFGSGTKLEIK"
